From US5969094A, “Anti-paramyxovirus screening method and vaccine” (Emory University, priority 1996, dated 1999)

B1: SN-HN: wild type Sendai virus hemagglutinin-neuraminidase (HN) protein (protein)
chain: MDGDRGKRDSYWSTSPSGSTTKPASGWERSSKADTWLLILSFTQWALSIATVIICIIISARQGYSMKEYSMTVEALNMSSREVKESLTSLIRQEVIARAVNIQSSVQTGIPVLLNKNSRDVIQMIDKSCSRQELTQHCESTIAVHHADGIAPLEPHSFWRCPVGEPYLSSDPEISLLPGPSLLSGSTTISGCVRLPSLSIGEAIYAYSSNLITQGCADIGKSYQVLQLGYISLNSDMFPDLNPVVSHTYDINDNRKSCSVVATGTRGYQLCSMPTVDERTDYSSDGIEDLVLDVLDLKGRTKSHRYRNSEVDLDHPFSALYPSVGNGIATEGSLIFLGYGGLTTPLQGDTKCRTQGCQQVSQDTCNEALKITWLGGKQVVSVIIQVNDYLSERPKIRVTTIPITQNYLGAEGRLLKLGDRVYIYTRSSGWHSQLQIGVLDVSHPLTINWTPHEALSRPGNKECNWYNKCPKECISGVYTDAYPLSPDAANVATVTLYANTSRVNPTIMYSNTTNIINMLRIKDVQLEAAYTTTSCITHFGKGYCFHIIEINQKSLNTLQPMLFKTSIPKLCKAES
B2: SN(44-140) chimeric HN protein (other)
chain: MEYWKHTNHGKDAGNELETSMATHGNKITNKITYILWTIILVLQWALSIATVIICIIISARQGYSMKEYSMTVEALNMSSREVKESLTSLIRQEVIARAVNIQSSVQTGIPVLLNKNSRDVIQMIDKSCSRQELTQHCESRITHDVGIKPLNPDDFWRCTSGLPSLMKTPKIRLMPGPGLLAMPTTVDGCVRTPSLVINDLIYAYTSNLITRGCQDIGKSYQVLQIGIITVNSDLVPDLNPRISHTFNINDNRKSCSLALLNTDVYQLCSTPKVDERSDYASSGIEDIVLDIVNHDGSISTTRFKNNNISFDQPYAALYPSVGPGIYYKGKIIFLGYGGLEHPINENAICNTTGCPGKTQRDCNQASHSPWFSDRRMVNSIIVVDKGLNSIPKLKVWTISMRQNYWGSEGRLLLLGNKIYIYTRSTSWHSKLQLGIIDITDYSDIRIKWTWHNVLSRPGNNECPWGHSCPDGCITGVYTDAYPLNPTGSIVSSVILDSQKSRVNPVITYSTSTERVNELAIRNKTLSAGYTTTSCITHYNKGYCFHIVEINHKSLDTFQPMLFKTEIPKSCS
B3: SN(140) chimeric HN protein (other)
chain: MDGDRGKRDSYWSTSPSGSTTKPASGWERSSKADTWLLILSFTQWALSIATVIICIIISARQGYSMKEYSMTVEALNMSSREVKESLTSLIRQEVIARAVNIQSSVQTGIPVLLNKNSRDVIQMIDKSCSRQELTQHCESRITHDVGIKPLNPDDFWRCTSGLPSLMKTPKIRLMPGPGLLAMPTTVDGCVRTPSLVINDLIYAYTSNLITRGCQDIGKSYQVLQIGIITVNSDLVPDLNPRISHTFNINDNRKSCSLALLNTDVYQLCSTPKVDERSDYASSGIEDIVLDIVNHDGSISTTRFKNNNISFDQPYAALYPSVGPGIYYKGKIIFLGYGGLEHPINENAICNTTGCPGKTQRDCNQASHSPWFSDRRMVNSIIVVDKGLNSIPKLKVWTISMRQNYWGSEGRLLLLGNKIYIYTRSTSWHSKLQLGIIDITDYSDIRIKWTWHNVLSRPGNNECPWGHSCPDGCITGVYTDAYPLNPTGSIVSSVILDSQKSRVNPVITYSTSTERVNELAIRNKTLSAGYTTTSCITHYNKGYCFHIVEINHKSLDTFQPMLFKTEIPKSCS
B4: SN(137) chimeric HN protein (other)
chain: MDGDRGKRDSYWSTSPSGSTTKPASGWERSSKADTWLLILSFTQWALSIATVIICIIISARQGYSMKEYSMTVEALNMSSREVKESLTSLIRQEVIARAVNIQSSVQTGIPVLLNKNSRDVIQMIDKSCSRQELTQHPPQRITHDVGIKPLNPDDFWRCTSGLPSLMKTPKIRLMPGPGLLAMPTTVDGCVRTPSLVINDLIYAYTSNLITRGCQDIGKSYQVLQIGIITVNSDLVPDLNPRISHTFNINDNRKSCSLALLNTDVYQLCSTPKVDERSDYASSGIEDIVLDIVNHDGSISTTRFKNNNISFDQPYAALYPSVGPGIYYKGKIIFLGYGGLEHPINENAICNTTGCPGKTQRDCNQASHSPWFSDRRMVNSIIVVDKGLNSIPKLKVWTISMRQNYWGSEGRLLLLGNKIYIYTRSTSWHSKLQLGIIDITDYSDIRIKWTWHNVLSRPGNNECPWGHSCPDGCITGVYTDAYPLNPTGSIVSSVILDSQKSRVNPVITYSTSTERVNELAIRNKTLSAGYTTTSCITHYNKGYCFHIVEINHKSLDTFQPMLFKTEIPKSCS
B5: SN(27-140) chimeric HN protein (other)
chain: MEYWKHTNHGKDAGNELETSMATHGNWERSSKADTWLLILSFTQWALSIATVIICIIISARQGYSMKEYSMTVEALNMSSREVKESLTSLIRQEVIARAVNIQSSVQTGIPVLLNKNSRDVIQMIDKSCSRQELTQHCESRITHDVGIKPLNPDDFWRCTSGLPSLMKTPKIRLMPGPGLLAMPTTVDGCVRTPSLVINDLIYAYTSNLITRGCQDIGKSYQVLQIGIITVNSDLVPDLNPRISHTFNINDNRKSCSLALLNTDVYQLCSTPKVDERSDYASSGIEDIVLDIVNHDGSISTTRFKNNNISFDQPYAALYPSVGPGIYYKGKIIFLGYGGLEHPINENAICNTTGCPGKTQRDCNQASHSPWFSDRRMVNSIIVVDKGLNSIPKLKVWTISMRQNYWGSEGRLLLLGNKIYIYTRSTSWHSKLQLGIIDITDYSDIRIKWTWHNVLSRPGNNECPWGHSCPDGCITGVYTDAYPLNPTGSIVSSVILDSQKSRVNPVITYSTSTERVNELAIRNKTLSAGYTTTSCITHYNKGYCFHIVEINHKSLDTFQPMLFKTEIPKSCS
B6: PI3-HN: wild type human parainfluenza type 3 virus HN protein (protein)
chain: MEYWKHTNHGKDAGNELETSMATHGNKITNKITYILWTIILVLLSIVFIIVLINSIKSEKAHESLLQDVNNEFMEVTEKIQMASDNINDLIQSGVNTRLLTIQSHVQNYIPISLTQQMSDLRKFISEITIRNDNQEVPPQRITHDVGIKPLNPDDFWRCTSGLPSLMKTPKIRLMPGPGLLAMPTTVDGCVRTPSLVINDLIYAYTSNLITRGCQDIGKSYQVLQIGIITVNSDLVPDLNPRISHTFNINDNRKSCSLALLNTDVYQLCSTPKVDERSDYASSGIEDIVLDIVNHDGSISTTRFKNNNISFDQPYAALYPSVGPGIYYKGKIIFLGYGGLEHPINENAICNTTGCPGKTQRDCNQASHSPWFSDRRMVNSIIVVDKGLNSIPKLKVWTISMRQNYWGSEGRLLLLGNKIYIYTRSTSWHSKLQLGIIDITDYSDIRIKWTWHNVLSRPGNNECPWGHSCPDGCITGVYTDAYPLNPTGSIVSSVILDSQKSRVNPVITYSTSTERVNELAIRNKTLSAGYTTTSCITHYNKGYCFHIVEINHKSLDTFQPMLFKTEIPKSCS

What was measured:
HeLa-T4 cells = format: cell-based
SN-F = molecular target: T1, SN-F (Sendai virus, UniProt P04855); format: cell-based
T1 sequence (P04855 117-565 limits assumed): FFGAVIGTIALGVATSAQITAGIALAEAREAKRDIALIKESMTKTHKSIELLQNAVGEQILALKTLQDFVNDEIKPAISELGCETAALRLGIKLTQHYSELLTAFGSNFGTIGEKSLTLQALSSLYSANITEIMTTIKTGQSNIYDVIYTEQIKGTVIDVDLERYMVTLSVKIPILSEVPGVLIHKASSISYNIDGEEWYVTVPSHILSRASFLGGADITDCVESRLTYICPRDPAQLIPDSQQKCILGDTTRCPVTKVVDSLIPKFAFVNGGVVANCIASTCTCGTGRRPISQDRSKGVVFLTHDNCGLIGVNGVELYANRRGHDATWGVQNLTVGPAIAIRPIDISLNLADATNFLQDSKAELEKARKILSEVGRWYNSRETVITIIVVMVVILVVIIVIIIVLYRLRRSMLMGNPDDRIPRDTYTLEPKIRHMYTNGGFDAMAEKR
T1 sequence (P04855 26-116 partner limits assumed): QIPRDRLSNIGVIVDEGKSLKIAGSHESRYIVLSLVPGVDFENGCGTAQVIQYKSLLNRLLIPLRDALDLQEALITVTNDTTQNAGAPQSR

guinea pig erythrocytes = format: cell-based
[1] = molecular target: T2, SN-F, fusion glycoprotein of Sendai virus (Sendai virus (SN), UniProt P04855); experiment: cell-based or functional assay
T2 sequence: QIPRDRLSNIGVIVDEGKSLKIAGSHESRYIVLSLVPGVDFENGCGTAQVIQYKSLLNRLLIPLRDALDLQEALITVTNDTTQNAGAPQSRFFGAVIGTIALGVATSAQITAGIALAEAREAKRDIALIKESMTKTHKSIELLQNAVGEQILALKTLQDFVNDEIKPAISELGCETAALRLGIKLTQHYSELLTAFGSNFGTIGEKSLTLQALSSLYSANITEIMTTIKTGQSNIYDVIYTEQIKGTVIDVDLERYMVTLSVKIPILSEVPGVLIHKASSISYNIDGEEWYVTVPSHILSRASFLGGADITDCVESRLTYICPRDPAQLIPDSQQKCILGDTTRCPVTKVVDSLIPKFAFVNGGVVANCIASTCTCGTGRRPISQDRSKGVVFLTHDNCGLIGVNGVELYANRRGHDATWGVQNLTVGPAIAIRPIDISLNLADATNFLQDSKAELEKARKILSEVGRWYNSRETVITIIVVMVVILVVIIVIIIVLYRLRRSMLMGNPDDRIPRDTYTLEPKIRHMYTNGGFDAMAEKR

Molecule	Cell surface expression (%) (HeLa-T4 cells)	Fusion activity (5) (SN-F)	Relative fusion promoting activity b/a (SN-F)	cell fusion / syncytium formation with SN-F observed by microscopy (SN-F)	hemadsorption observed under the microscope (guinea pig erythrocytes)	Fusion activity (%), β-galactosidase production in the fusion dependent reporter gene activation assay [1]	HAD activity as percentage of wild type SN-HN hemadsorption (guinea pig erythrocytes)	fusion promoting activity, percentage of wild type SN-HN (SN-F)
B1	163.9	100.00	0.61	Extensive cell fusion	high levels of hemadsorption			
B2	126.6		0.70		high levels of hemadsorption	88.7 % of SN-HN wt with SN-F	comparable or higher HAD activity than that of SN-HN	
B3	68.1		0.66	lower level of syncytium formation	high levels of hemadsorption	44.6 % of SN-HN wt with SN-F	comparable or higher HAD activity than that of SN-HN	
B4					lower activities	0 % of SN-HN wt with SN-F	27.5%	did not show any significant fusion promoting activity
B5	75.6			Syncytium formation was observed	high levels of hemadsorption	79.7 % of SN-HN wt with SN-F	comparable or higher HAD activity than that of SN-HN	
B6	100.0	3.47	0.03	no cell fusion was observed				
